The target of assay [1] is T1, IL-18 receptor (IL-18Rαβ) on cells (UniProt Q13478 19-541; O95256 20-599, limits assumed).
T1 sequence (looked up) 1: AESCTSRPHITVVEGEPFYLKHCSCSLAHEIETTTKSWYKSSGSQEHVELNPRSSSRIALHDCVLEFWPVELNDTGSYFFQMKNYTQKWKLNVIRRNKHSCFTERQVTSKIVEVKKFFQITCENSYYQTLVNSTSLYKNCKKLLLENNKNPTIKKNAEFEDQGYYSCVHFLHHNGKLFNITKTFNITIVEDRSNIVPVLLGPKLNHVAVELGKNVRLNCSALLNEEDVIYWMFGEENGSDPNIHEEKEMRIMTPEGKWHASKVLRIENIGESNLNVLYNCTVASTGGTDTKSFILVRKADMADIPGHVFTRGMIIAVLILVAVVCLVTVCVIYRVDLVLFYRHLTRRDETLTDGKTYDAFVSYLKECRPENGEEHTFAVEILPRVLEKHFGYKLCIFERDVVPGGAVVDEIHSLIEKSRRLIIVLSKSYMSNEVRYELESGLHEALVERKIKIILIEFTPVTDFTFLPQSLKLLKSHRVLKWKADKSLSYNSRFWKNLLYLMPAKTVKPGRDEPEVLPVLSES
T1 sequence (looked up) 2: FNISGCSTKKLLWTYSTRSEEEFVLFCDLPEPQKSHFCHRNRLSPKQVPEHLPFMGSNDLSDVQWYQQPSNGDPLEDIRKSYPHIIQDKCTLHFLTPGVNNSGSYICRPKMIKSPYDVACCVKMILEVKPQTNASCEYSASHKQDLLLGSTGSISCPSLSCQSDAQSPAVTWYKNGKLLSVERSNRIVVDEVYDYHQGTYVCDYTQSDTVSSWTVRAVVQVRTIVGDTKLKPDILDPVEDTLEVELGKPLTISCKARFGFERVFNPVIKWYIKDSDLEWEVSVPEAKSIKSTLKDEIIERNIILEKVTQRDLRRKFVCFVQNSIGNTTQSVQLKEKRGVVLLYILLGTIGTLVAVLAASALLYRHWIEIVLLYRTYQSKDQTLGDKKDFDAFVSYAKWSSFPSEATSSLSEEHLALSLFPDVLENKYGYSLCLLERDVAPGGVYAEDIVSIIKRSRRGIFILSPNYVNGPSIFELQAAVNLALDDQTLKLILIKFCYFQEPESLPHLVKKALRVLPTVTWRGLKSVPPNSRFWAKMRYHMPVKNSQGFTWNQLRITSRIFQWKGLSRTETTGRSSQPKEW
The assay can be described thus: cell-based or functional assay.

Assay [2] concerns the target T1, IL-18 receptor (IL-18Rαβ) on cells. The assay can be described thus: cell-based or functional assay. The source holds these as a separate data set.
Assay [3] has the same target. The assay can be described thus: cell-based or functional assay. The source holds these as a separate data set.
For assay [4] the target is unchanged. The assay can be described thus: cell-based or functional assay. This is another data set of the same source.
For assay [5] the target is unchanged. The assay can be described thus: cell-based or functional assay. The source holds these as a separate data set.
For assay [6], the target named is T2, IL-18 receptor alpha subunit (Biotinylated for capture on streptavidin (SAX2) biosensors. The site and tag are not given in the patent.).
T2 construct: also called IL18 receptor alpha (Acro, IL1-H82E7); IL-18Ra
T2 chain: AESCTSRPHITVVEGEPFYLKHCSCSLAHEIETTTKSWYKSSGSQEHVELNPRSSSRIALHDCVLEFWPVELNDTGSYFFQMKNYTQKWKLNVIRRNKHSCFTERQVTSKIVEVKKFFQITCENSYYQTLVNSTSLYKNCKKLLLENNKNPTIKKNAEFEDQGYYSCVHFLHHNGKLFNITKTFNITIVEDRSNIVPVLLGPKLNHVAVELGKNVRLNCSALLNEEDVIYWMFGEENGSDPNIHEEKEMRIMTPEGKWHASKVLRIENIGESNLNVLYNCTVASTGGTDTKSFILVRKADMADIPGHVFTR
In words: BLI (Octet R8), IL-18 receptor alpha on streptavidin (SAX2) biosensor, analyte 1000 nM to 1.25 nM in 1:3 dilutions. The text has this:
Act-IL18 candidates C185, C314, and C315 were digested as described above and characterized by BLI. Briefly, undigested and digested samples were compared for their binding against IL18 receptor on an Octet R8 (Sartorius).
(In general: In BLI a coated tip is dipped into the sample, and binding shifts an interference pattern.)

B1: C086 (SEQ ID NO: 30) (ligand)
chain: YFGKLKSKLSIIRNLNDQVLFIDQGNRPLFEDMTDSDARDNAPRTIFIISMYADSQPRGMAVAISVKCEKISTLSAENKIISFKEMNPPDNIKDTKSDIIFFQRSVPGHDNKMQFESSSYEGYFLAAEKERDLFKLILKKEDELGDRSIMFTVQNED
Turning to B1, the “IFNγ release NK-92 assay EC50” value in assay [1] worked out at 0.0018 nM. In addition, the “Hek Blue reporter assay EC50” value in assay [2] was 0.057 pM. For the same molecule, in assay [3], the “IFNg release PBMCs assay EC50” value was found to be 0.0022 nM. Also, the “HEK-blue EC50” value in assay [4] is 0.04 nM. The “HEK-Blue IL-18R reporter EC50” value in assay [5] is 0.034 pM.

B2: C190 (ligand)
chain: MAAEPVEDNCINFVAMKFIDNTLYFIAEDDENLESDYFGKLKSKLSIIRNLNDQVLFIDQGNRPLFEDMTDSDARDNAPRTIFIISMYADSQPRGMAVAISVKCEKISTLSAENKIISFKEMNPPDNIKDTKSDIIFFQRSVPGHDNKMQFESSSYEGYFLAAEKERDLFKLILKKEDELGDRSIMFTVQNED
For the molecule B2, in assay [2], the “Hek Blue reporter assay EC50” value was determined as 404 pM. Moreover, the “HEK-blue EC50” value in assay [4] came to 404 nM.

B3: C190 + MMP9 (ligand)
chain: B2 chain
B3: the “Hek Blue reporter assay EC50” value in assay [2] turned out to be 198 pM. In addition, the “HEK-blue EC50” value in assay [4] is 198 nM.

B4: C127 (ligand)
chain: MAAEPVEDNCINFVAMKFIDNTLYFIAEDDENLESDSGGPGPAGMKGLPGSYFGKLKSKLSIIRNLNDQVLFIDQGNRPLFEDMTDSDARDNAPRTIFIISMYADSQPRGMAVAISVKCEKISTLSAENKIISFKEMNPPDNIKDTKSDIIFFQRSVPGHDNKMQFESSSYEGYFLAAEKERDLFKLILKKEDELGDRSIMFTVQNED
Take B4: in assay [2], the “Hek Blue reporter assay EC50” value is 295 pM. Moreover, in assay [4], the “Fold potency loss vs C086” value is 7000 fold and the “HEK-blue EC50” value came out at 295 nM.

B5: C185 (ligand)
chain: MAAEPVEDNCINFVAMKFIDNTLYFIAEDDENLESDPLGYFGKLKSKLSIIRNLNDQVLFIDQGNRPLFEDMTDSDARDNAPRTIFIISMYADSQPRGMAVAISVKCEKISTLSAENKIISFKEMNPPDNIKDTKSDIIFFQRSVPGHDNKMQFESSSYEGYFLAAEKERDLFKLILKKEDELGDRSIMFTVQNED
As to B5, the “IFNγ release NK-92 assay EC50” value in assay [1] came out at 210 nM. In assay [2], the “Hek Blue reporter assay EC50” value worked out at 2790 pM. In assay [4], the “Fold potency loss vs C086” value is 60900 fold and the “HEK-blue EC50” value was 2560 nM. Also, the binding result in assay [6] was “no binding”.

Values taken from patent US20250197467A1 (BRIGHT PEAK THERAPEUTICS, published 2025).
